Target: T1, His-SAPK9 (rice, UniProt Q75V57 1-361)
T1 construct: SnRK2-type protein kinase SAPK9 from rice; source: E. coli DE3, pET-32a (+), purified
T1 sequence (looked up): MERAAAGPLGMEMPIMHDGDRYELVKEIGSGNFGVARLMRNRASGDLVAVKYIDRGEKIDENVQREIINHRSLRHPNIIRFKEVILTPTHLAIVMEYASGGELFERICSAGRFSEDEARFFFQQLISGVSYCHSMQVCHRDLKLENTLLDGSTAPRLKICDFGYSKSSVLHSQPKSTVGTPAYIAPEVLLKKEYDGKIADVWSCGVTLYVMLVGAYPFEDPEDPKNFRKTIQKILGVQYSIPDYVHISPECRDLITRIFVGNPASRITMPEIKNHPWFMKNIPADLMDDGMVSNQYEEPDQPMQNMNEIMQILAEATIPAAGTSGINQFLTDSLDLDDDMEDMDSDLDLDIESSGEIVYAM
Assay: pull-down; 0.5 mg GST-OsMADS23 or GST on GST Bind Resin, 4°C, 2 h; then 0.5 mg purified His-SAPK9 for 2 h; three washes; western blot with anti-His
Conditions: both partners purified

B1: GST-tagged OsMADS23 (natural protein)
chain: not shown
notes: MADS-box transcription factor OsMADS23 from rice; Printed as GST-OsMADS23; also called GST-OsMADS23; source: E. coli BL21 (DE3), pGEX-4T-1, purified
B1: binds.

— paper PMC8363014, “OsMADS23 phosphorylated by SAPK9 confers drought and salt tolerance by regulating ABA biosynthesis in rice” (PLoS Genetics, 2021)
